Data taken from patent US20230398116A1, “Agent for reversing resistance to anticancer drugs” (Y'S AC CO., LTD., priority 2020, published 2023).
“Also recorded” adds a separate entry of the source.

Columns and labels:
[1] = test system: E0771 cells; assay: MTT assay / cell proliferation (confluence) assay, E0771; assay type: cell-based, mouse
Experimental: (§1) Human and mouse breast cancer cells (1×10^4) were cultured in 10% FCS containing RPMI1640 medium on a 96-well flat bottom plate (Corning, Tewksbury, MA) at 37° C. for 24 hours, and then stimulated with IL-26 for 48 hours in the presence or absence of EGFR-TKI (gefitinib or erlotinib) at various concentrations, a signal inhibitor, and a neutralizing antibody. HUVECs were seeded in a 96-well flat bottom plate at 5×10^3 cells/well in a 2% FBS-containing EGM medium in which growth factors were reduced by half, and cultured at 37° C. for 12 hours. Thereafter, the medium was aspirated, and a recombinant human IL-26 dimer was adjusted to a final concentration of 10 ng/mL in a 2% FBS-containing EGM medium containing no growth factors, and added to the cells. The stimulation was started in the presence or absence of control human IgG and anti-human IL-26 antibodies, and the cells were cultured for 48 hours. Thereafter, a concentration of 20 μl or 1/10 of a 5 mg/ml MTT solution (Tetrazolium monosodium salt, WST-8) was added to each well, and the plate was allowed to stand for 1 hour. The absorbance at 450 nm/595 nm was measured using Microplate Reader (Bio-Rad, Hercules, CA) and data was analyzed with Microplate Manager 6 software (Bio-Rad).
(§2) Human and mouse breast cancer cells (1×10^4) were cultured in RPMI1640 medium containing 10% FCS for 24 hours at 37° C. on a 96-well flat bottom plate (Corning), and then stimulated with IL-26 (30 ng/ml) in the presence or absence of various concentrations of gefitinib and a neutralizing antibody. Cell proliferation was measured as cell confluence using IncuCyte ZOOM (Essen Bioscience, Ann Arbor, MI).

[2] = test system: HCC70 cells; assay: MTT assay / cell proliferation (confluence) assay, HCC70; assay type: cell-based, human
Experimental: as §1, §2

[3] = test system: endoplasmic reticulum stress signaling (DDIT3, ATF3, ATF4) in HCC70 cells; assay: qRT-PCR and immunofluorescence of endoplasmic reticulum stress markers in HCC70 cells; assay type: cell-based, human
Experimental: (§3) E0771 and HCC70 cells (1×10^5) were cultured for 24 hours in RPMI1640 medium with 10% FCS on Lab-Tek chamber slides (Thermo Fisher Scientific). The cultured cells were stimulated with Alexa Fluor 488 labeled IL-26 (30 ng/ml) in the presence or absence of recombinant human and mouse EphA3-Ig for 1 hour. HCC70 cells were stimulated with IL-26 (30 ng/ml) in the presence or absence of gefitinib (40 μM), a signal inhibitor, and a neutralizing antibody for 24 hours. Subcutaneous tumor samples obtained from mice were fixed in 4% paraformaldehyde (Thermo Fisher Scientific) and embedded in OCT compound (Tissue-Tek (registered trademark), Sakura Finetek, Japan). Cells and slides were immunostained with each antibody and observed using a Zeiss inverted microscope and Axiovision 2.0 program (Carl Zeiss, Germany). The fluorescence intensity was quantified with Image-J software (NIH). The images were captured using a 100×400× objective.
(§4) E0771 cells, HCC70 cells, and MDA-MB-468 cells were cultured in RPMI1640 medium containing 10% FCS on a 6-well plate (Corning), and then stimulated with IL-26 (30 ng/ml) in the presence or absence of gefitinib for 3, 6, or 12 hours. The cells were harvested and total RNA was extracted. cDNA was synthesized using PrimeScript II first-strand cDNA synthesis kit (TaKaRa Bio, Japan) and oligo (dT) primers. The mRNA levels were measured by 7500 System SDS software (Applied Biosystems, Foster City, CA) and normalized to hypoxanthine phosphoribosyltransferase expression levels.

[4] = test system: HCC70 cells; assay: JC-1 staining (mitochondrial membrane potential) of HCC70 cells; assay type: cell-based, human; details: 24 hours, FIG. 31
Experimental: Mitochondrial stability was evaluated using the mitochondrial membrane potential (ΔΨm) assay kit (Cayman Chemical, Ann Arbor, MI, USA) utilizing JC-1 staining. HCC70 cells (1×10^4 cells) were stimulated with IL-26 (30 ng/ml) in the presence or absence of gefitinib (40 μM), a signal inhibitor, and a neutralizing antibody in 96-well flat bottom plate (Corning) for 24 hours. […] Stained cells were quantified using Image-J software (NIH). Images were captured using a 40× objective.

[5] = test system: endoplasmic reticulum stress signaling in MDA-MB-468 cells; assay: qRT-PCR of endoplasmic reticulum stress markers in MDA-MB-468 cells; assay type: cell-based, human; details: 6 hours
Experimental: as §4

[6] = test system: endoplasmic reticulum stress signaling in E0771 cells; assay: qRT-PCR of endoplasmic reticulum stress markers in E0771 cells; assay type: cell-based, mouse; details: 6 hours
Experimental: as §4

[7] = molecular target: T1, EphA3/IL-26 interaction (Homo sapiens, UniProt Q9NPH9); assay: Immunofluorescence of rhIL-26-Alexa 488 and cell surface EphA3 on E0771 cells; assay type: cell-based, mouse
T1 construct: purchased R&D Systems; host or cells: IL-26 was purchased; EphA3 is endogenous on E0771 cells
T1 sequence (Q9NPH9 22-171): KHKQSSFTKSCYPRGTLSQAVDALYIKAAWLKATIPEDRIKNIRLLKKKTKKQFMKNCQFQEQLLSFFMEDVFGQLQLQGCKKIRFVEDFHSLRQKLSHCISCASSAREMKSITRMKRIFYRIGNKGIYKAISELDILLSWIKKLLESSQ
Experimental: as §3

[8] = MDA-MB-468, IL-26 30 ng/ml, gefitinib 20 μM
[9] = E0771, IL-26 30 ng/ml, gefitinib 20 μM

COc1cc2ncnc(Nc3ccc(F)c(Cl)c3)c2cc1OCCCN1CCOCC1 [gefitinib, Gefitinib, reference compound]
cell proliferation under gefitinib treatment ([1]; E0771, 48 hours, FIGS. 2A to 2C): suppressed
cell proliferation under gefitinib treatment ([2]; HCC70, 48 hours, FIGS. 3A to 3C): suppressed
mRNA expression levels of IL-6, IL-8 and CXCL2, gefitinib treatment ([3]; HCC70, gefitinib 40 μM, 6 hours, FIG. 34): significantly increased
expression of DDIT3 at the protein level, gefitinib treatment ([3]; HCC70, gefitinib 40 μM, 24 hours, immunocytochemical staining, FIG. 30): marked increase
mRNA expression levels of DDIT3, ATF3 and ATF4, gefitinib treatment ([3]; HCC70, gefitinib 40 μM, FIG. 28): significantly increased
mitochondrial activity, gefitinib treatment ([4]; HCC70, gefitinib 40 μM): significantly reduced mitochondrial activity
mRNA expression levels of DDIT3, ATF3 and ATF4, gefitinib treatment ([5]; MDA-MB-468, gefitinib 20 μM, FIG. 29): significantly increased
mRNA expression levels of IL-6, IL-8 and CXCL2, gefitinib treatment ([5]; MDA-MB-468, gefitinib 20 μM, FIG. 34): significantly increased
mRNA expression levels of DDIT3, ATF3 and ATF4, gefitinib treatment ([6]; E0771, gefitinib 20 μM, FIG. 29): significantly increased
mRNA expression levels of endoplasmic reticulum stress-related cytokines/chemokines, gefitinib treatment ([6]; E0771, gefitinib 20 μM, FIG. 34): significantly increased

B1: 69-10: mouse anti-human IL-26 monoclonal antibody, clone 69-10, from deposited hybridoma (antibody, V domains shown)
VH: QVTLKESGPGILKPSQTLSLTCSFSGFSLSTSGMGVGWIRQPSGKGLEWLAHIWWDDDKYYNPSLKSQLTISKDTSRNQVFLKITSVDTADTATYYCVRGGITATHYYAMDYWGQGTSVTVSS
VL: DIQMTQSPASQSASLGESVTISCLASQTIGTWLSWYQQKPGKSPQLLIYAATSLADGVPSRFSGSGSGTKFSFKISSLQAEDFVSYYCQQLYSSPWTFGGGTKLEIK
reversal of inhibitory effect of IL-26 on gefitinib-induced suppression of cell proliferation (MTT) ([1]; E0771, IL-26 30 ng/ml, gefitinib 20 μM, antibody 20 μg/ml, 48 hours, FIG. 5D): reversed the inhibitory effect of IL-26 on gefitinib-induced suppression of cell proliferation
reversal of effect of IL-26 on gefitinib-induced suppression of cell proliferation (percent confluence) ([1]; E0771, gefitinib 15 μM and IL-26, antibody 10 μg/ml (mixture 2.5 μg/ml each), FIG. 11): reversed the effect of IL-26 on gefitinib-induced suppression of cell proliferation
reversal of inhibitory effect of IL-26 on gefitinib-induced suppression of cell proliferation ([2]; HCC70, IL-26 30 ng/ml, gefitinib 40 μM, 48 hours, MTT, FIG. 59): reversed the inhibitory effect of IL-26 on gefitinib-induced suppression of cell proliferation in an antibody dose-dependent manner
inhibition of colocalization of IL-26 with EphA3 (EphA3/IL-26 interaction) ([7]; E0771, antibodies 10 μg/ml, FIGS. 19 and 20): significantly inhibited
inhibition of the decrease in expression of DDIT3 at the protein level by IL-26 together with gefitinib ([3]; HCC70, 24 hours, antibodies 50 μg/ml, FIG. 32 lower): significantly inhibited
inhibitory effect compared with anti-EphA3 pAb ([3]; HCC70 cells treated with gefitinib and IL-26): stronger than that of anti-EphA315 pAb
reversal of effect of IL-26 on gefitinib-induced DDIT3 expression and mitochondrial membrane depolarization ([3]; HCC70 cells treated with gefitinib and IL-26, FIGS. 32 and 33): reversed the effect of IL-26

B2: IL-26: recombinant human IL-26 dimers for cell stimulation, R&D Systems (protein)
chain: T1 sequence (Q9NPH9 22-171)
effect of exogenous IL-26 on inhibitory effect of erlotinib ([1]; E0771, IL-26 30 ng/ml, erlotinib 30 μM or 50 μM, 48 hours, MTT): inhibited the inhibitory effect of erlotinib on cell proliferation
effect of exogenous IL-26 on gefitinib-induced suppression of cell proliferation ([1]; E0771, IL-26 with gefitinib, 48 hours): significantly inhibited the cell proliferation suppression induced by gefitinib; also recorded: significantly suppressed in a dose-dependent manner
cell proliferation, IL-26 treatment alone ([1]; E0771, no gefitinib): did not affect cell proliferation
effect of exogenous IL-26 on inhibitory effect of erlotinib ([2]; HCC70, IL-26 30 ng/ml, erlotinib 30 μM or 50 μM, 48 hours, MTT): inhibited the inhibitory effect of erlotinib on cell proliferation
effect of exogenous IL-26 on gefitinib-induced suppression of cell proliferation ([2]; HCC70, IL-26 with gefitinib, 48 hours): significantly inhibited the cell proliferation suppression induced by gefitinib
colocalization of exogenous IL-26 with cell surface EphA3 ([7]; E0771, FIGS. 17 and 18): colocalized with the cell surface EphA3
mRNA expression levels of IL-6, IL-8 and CXCL2, IL-26 with gefitinib ([3]; HCC70, IL-26 30 ng/ml, gefitinib 40 μM, 6 hours, FIG. 34): significantly reduced
expression of DDIT3 at the protein level, IL-26 with gefitinib ([3]; HCC70, IL-26 30 ng/ml, gefitinib 40 μM, 24 hours, FIG. 30): significant decrease
mRNA expression levels of DDIT3, ATF3 and ATF4, IL-26 with gefitinib ([3]; HCC70, IL-26 30 ng/ml, gefitinib 40 μM, FIG. 28): clearly reduced
mitochondrial activity, IL-26 with gefitinib ([4]; HCC70, IL-26 30 ng/ml, gefitinib 40 μM): significantly inhibited the reduction in mitochondrial activity
mRNA expression levels of DDIT3, ATF3 and ATF4, IL-26 with gefitinib [5, 8]: significantly decreased
mRNA expression levels of IL-6, IL-8 and CXCL2, IL-26 with gefitinib [5, 8]: significantly reduced
mRNA expression levels of DDIT3, ATF3 and ATF4, IL-26 with gefitinib [6, 9]: significantly decreased
mRNA expression levels of endoplasmic reticulum stress-related cytokines/chemokines, IL-26 with gefitinib [6, 9]: significantly reduced
